Test results as given in US20210009673A1, “METHODS FOR REGULATING BREAST CANCERS” (priority 2018, published 2021).

Tests used:
[1] = test system: β-catenin; experiment: PTN-stimulated tyrosine phosphorylation of β-catenin in COS-7 cells (immunoprecipitation, Western blot); format: cell-based
Protocol: FIG. 1: FIG. 1 illustrates in (A) PTN stimulation of tyrosine phosphorylation of β-catenin in cells that express RPTPβ/ζ and ALK. COS7 cells transiently expressing ALK and RPTPβ/ζ were stimulated with 10 ng PTN/ml. Cell lysates were prepared and used to immunoprecipitate β-catenin. The immunoprecipitates were analyzed in Western blots probed with anti-phosphotyrosine antibodies. Lane 1, cells transfected with ALK that were not stimulated with PTN. Lane 2, cells transfected with ALK stimulated with PTN. Lane 3, cells transfected with empty vector not stimulated with PTN. Lane 4, cells transfected with empty vector stimulated with PTN. […] The immunoprecipitates were analyzed in Western blots probed with anti-phosphotyrosine antibodies. […] Cell lysates were used to immunoprecipitate β-catenin and the immunoprecipitates were analyzed in Western blots probed with anti-phospho-tyrosine antibodies and reprobed with anti-β-catenin antibodies. […] MCF-7 cells that stably express EGFR/RPTPβ/ζ not transfected with ALK were analyzed as above. […] Lysates of MCF-7 cells and lysates of MCF-7 cells stimulated with EGF were used to immunoprecipitate β-catenin and the immunoprecipitates were analyzed in Western blots probed with anti-phospho-tyrosine antibodies and separately with anti-β-catenin antibodies. […]

[2] = test system: GSK3β; experiment: phosphorylation of GSK3β serine 9 in PTN-stimulated HUVS cells; format: cell-based, human; conditions: 5, 10 and 20 minutes after PTN
Protocol: (§1) FIG. 11: FIG. 11 illustrates: human umbilical vein stromal cells not stimulated or stimulated with 50 ng/ml of PTN for 2, 5, 10 or 20 minutes were used to prepare cell lysates that were analyzed in Western blots probed with anti-phospho threonine 308 Akt (panel A), anti-phospho serine 473 Akt (panel B), anti-phospho-serine 9 GSK3β (panel C), anti-phospho-serine 33, 37 and […] β-catenin (panel D) or anti-actin antibodies (panel E). Akt was immunoprecipitated from those lysates using anti-Akt antibodies, incubated with a fusion peptide containing the 20 N-terminal amino acids of GSK3β and analyzed in Western-blots probed using anti-phospho-serine 9 GSK3β antibodies (panel F).
Lysates from HUVS cells stimulated with PTN as above were then analyzed in Western blots probed with anti-phosphoserine 9 GSK3β antibodies. GSK3β is known to be phosphorylated by Akt at serine 9 and to inactivate its catalytic activity. […]
The association of adaptor proteins that associate with specific phosphorylated sites in activated EGFR are responsible for the activation of phosphatidyl-inositol 3-kinase (PI3K). […] The cells were stimulated with PTN for 2, 5, 10, and 20 minutes, cell lysates were prepared, and the lysates were analyzed in Western blots probed with anti-phospho-Akt (Ser473), anti-phospho-GSKβ (Ser9), and anti-phospho-β-catenin (Thr42) antibodies. […]

[3] = test system: β-catenin; experiment: phosphorylation of serines 33, 37 and threonine 41 in β-catenin in HUVS cells; format: cell-based, human; conditions: 2 minutes after PTN
Protocol: as §1
A key function of activated GSK3β in the pathway of β-catenin translocation into the nuclei is to phosphorylate β-catenin serines 33, 37 and threonine 41. […] The levels of phosphorylation of serine 33, 37 and threonine 41 in β-catenin were therefore measured in Western blots of lysates from PTN-stimulated cells probed with anti-β-catenin antibodies that recognize phosphoserines 33, 37 and threonine 41. […] In the control study, β-catenin phosphorylated in serines 33, 37 and threonine 41 was readily detected when the cells are not stimulated with PTN. […]

B1: pleiotrophin (protein, UniProt P21246 33-168, looked up)
Pleiotrophin: GKKEKPEKKVKKSDCGEWQWSVCVPTSGDCGLGTREGTRTGAECKQTMKTQRCKIPCNWKKQFGAECKYQFQAWGECDLNTALKTRTGSLKRALHNAECQKTVTISKPCGKLTKPKPQAESKKKKKEGKKQEKMLD
- tyrosine phosphorylation of β-catenin ([1]; COS-7 cells expressing RPTPβ/ζ alone): failed to stimulate
- increased tyrosine phosphorylation of β-catenin ([1]; COS-7 cells expressing both ALK and RPTPβ/ζ, 10 ng PTN/ml): about 3 fold
- GSK3β serine 9 phosphorylation [2]: striking increase
- phosphorylation of serines 33, 37 and threonine 41 in β-catenin [3]: sharply decreased
